Laboratory results published in paper PMC2116342 (The Journal of Cell Biology, 1990).

Legend:
[1] = molecular target: L-desmin (desmin lacking its carboxy-terminal 27 residues) (chicken); assay: cross-linking
cross-linking = molecular target: the molecule itself; assay: cross-linking

stoichiometry N [1]	Molecule	stoichiometry N (cross-linking)
4	L-desmin (desmin lacking its carboxy-terminal 27 residues) (domain or fragment)	
	desmin (intact chicken gizzard desmin) (natural protein, UniProt P02542 1-464, looked up) MSQSYSSSQRVSSYRRTFGGGTSPVFPRASFGSRGSGSSVTSRVYQVSRTSAVPTLSTFRTTRVTPLRTYQSAYQGAGELLDFSLADAMNQEFLQTRTNEKVELQELNDRFANYIEKVRFLEQQNALMVAEVNRLRGKEPTRVAEMYEEELRELRRQVDALTGQRARVEVERDNLLDDLQKLKQRLQEEIQLKEEAENNLAAFRADVDAATLARIDLERRIESLQEEIAFLKKVHEEEIRELQAQLQEQHIQVEMDISKPDLTAALRDIRAQYESIAAKNIAEAEEWYKSKVSDLTQAANKNNDALRQAKQEMLEYRHQIQSYTCEIDALKGTNDSLMRQMREMEERFAGEAGGYQDTIARLEEEIRHLKDEMARHLREYQDLLNVKMALDVEIATYRKLLEGEENRISIPMHQTFASALNFRETSPDQRGSEVHTKKTVMIKTIETRDGEVVSEATQQQHEVL	4
